This is an account of results in IntAct's records for PubMed 27832861.

B1: Aquaporin-7 (Homo sapiens), O14520 (parent)
chain: MVQASGHRRSTRGSKMVSWSVIAKIQEILQRKMVREFLAEFMSTYVMMVFGLGSVAHMVLNKKYGSYLGVNLGFGFGVTMGVHVAGRISGAHMNAAVTFANCALGRVPWRKFPVYVLGQFLGSFLAAATIYSLFYTAILHFSGGQLMVTGPVATAGIFATYLPDHMTLWRGFLNEAWLTGMLQLCLFAITDQENNPALPGTEALVIGILVVIIGVSLGMNTGYAINPSRDLPPRIFTFIAGWGKQVFSNGENWWWVPVVAPLLGAYLGGIIYLVFIGSTIPREPLKLEDSVAYEDHGITVLPKMGSHEPTISPLTPVSVSPANRSSVHPAPPLHESMALEHF
partner: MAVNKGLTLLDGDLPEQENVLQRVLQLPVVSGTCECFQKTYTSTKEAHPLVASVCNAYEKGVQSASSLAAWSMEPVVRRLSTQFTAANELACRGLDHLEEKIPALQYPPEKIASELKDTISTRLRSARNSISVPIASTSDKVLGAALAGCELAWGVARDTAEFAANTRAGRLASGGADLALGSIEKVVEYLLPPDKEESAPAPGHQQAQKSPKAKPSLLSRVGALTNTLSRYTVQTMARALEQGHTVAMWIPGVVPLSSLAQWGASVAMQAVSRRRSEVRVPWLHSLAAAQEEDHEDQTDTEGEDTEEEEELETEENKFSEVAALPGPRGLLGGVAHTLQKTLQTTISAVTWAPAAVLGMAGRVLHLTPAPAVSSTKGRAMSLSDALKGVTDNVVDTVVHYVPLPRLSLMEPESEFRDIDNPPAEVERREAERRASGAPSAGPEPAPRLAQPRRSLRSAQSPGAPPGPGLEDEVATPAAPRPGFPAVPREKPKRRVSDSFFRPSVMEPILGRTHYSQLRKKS

This test covers variants of B1. The following applies: with plin1_human PLIN1, O60240.
Consider MVQASGHRRAARGSKMVSWSVIAKIQEILQRKMVREFLAEFMSTYVMMVFGLGSVAHMVLNKKYGSYLGVNLGFGFGVTMGVHVAGRISGAHMNAAVTFANCALGRVPWRKFPVYVLGQFLGSFLAAATIYSLFYTAILHFSGGQLMVTGPVATAGIFATYLPDHMTLWRGFLNEAWLTGMLQLCLFAITDQENNPALPGTEALVIGILVVIIGVSLGMNTGYAINPSRDLPPRIFTFIAGWGKQVFSNGENWWWVPVVAPLLGAYLGGIIYLVFIGSTIPREPLKLEDSVAYEDHGITVLPKMGSHEPTISPLTPVSVSPANRSSVHPAPPLHESMALEHF [S10A;T11A], for which the “effect of a mutation on the interaction” value was “disrupting interaction strength”.
